Source: patent US20110098217A1 (INDIANA UNIVERSITY RESEARCH AND TECHNOLOGY, published 2011)
Where two headings read alike, the source gives them in different places. Numbered stars: 1 amine (or outer) side, 2 acyl side, 3 side chain; on linkers, the order of the positions; unused ones are H or OH. Bridge positions count the residues as written; N and C are the ends. Square brackets hold non-standard residues; d marks the D form. Ends that are not written are not given here. CSA‑2 = Cys(S-CH2CH2COOH), S-(2-carboxyethyl)-L-cysteine, O=C([C@H](CSCCC(=O)[*:3])N[*:1])[*:2]; CSA‑1 = Cys(S-CH2COOH), S-carboxymethyl-L-cysteine, O=C([C@H](CSCC(=O)[*:3])N[*:1])[*:2]; Abu(4-SO3H) = N[C@@H](CCS(=O)(=O)O)C(=O)O; PhLac = O=C(O)[C@@H](O)Cc1ccccc1; NSG‑1 = not defined here; NSG‑2 = not defined here

Tests used:
[1] = biological target: human glucagon receptor (human) (UniProt P47871); assay: cell-based or functional assay
Chain of human glucagon receptor (human) (P47871 26-477): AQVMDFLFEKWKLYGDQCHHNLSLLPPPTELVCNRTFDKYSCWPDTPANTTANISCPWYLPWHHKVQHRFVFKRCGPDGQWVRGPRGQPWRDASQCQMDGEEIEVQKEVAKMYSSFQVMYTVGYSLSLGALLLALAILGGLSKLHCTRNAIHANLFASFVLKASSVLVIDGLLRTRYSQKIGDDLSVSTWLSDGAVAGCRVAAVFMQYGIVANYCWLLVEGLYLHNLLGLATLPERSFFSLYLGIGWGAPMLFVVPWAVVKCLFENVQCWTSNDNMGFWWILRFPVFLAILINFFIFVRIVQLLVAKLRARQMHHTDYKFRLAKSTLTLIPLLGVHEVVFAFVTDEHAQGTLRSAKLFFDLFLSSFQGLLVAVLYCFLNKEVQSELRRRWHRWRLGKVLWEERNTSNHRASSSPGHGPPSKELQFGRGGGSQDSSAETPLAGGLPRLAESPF

human glucagon receptor [2] = biological target: T1, human glucagon receptor (human, UniProt P47871 26-477); assay: cell-based or functional assay
T1 sequence (P47871 26-477): as above

human glucagon receptor [3] = biological target: T1, human glucagon receptor; assay: cell-based or functional assay; remark: listed apart in the source
human glucagon receptor [4] = biological target: T1, human glucagon receptor; assay: SPA competition vs 125I-glucagon, receptor membranes
human glucagon receptor [5] = biological target: T1, human glucagon receptor; assay: as above; remark: listed apart in the source
[6] = biological target: human GLP-1 receptor (human) (UniProt P43220); assay: cell-based or functional assay
Chain of human GLP-1 receptor (human) (P43220 24-463): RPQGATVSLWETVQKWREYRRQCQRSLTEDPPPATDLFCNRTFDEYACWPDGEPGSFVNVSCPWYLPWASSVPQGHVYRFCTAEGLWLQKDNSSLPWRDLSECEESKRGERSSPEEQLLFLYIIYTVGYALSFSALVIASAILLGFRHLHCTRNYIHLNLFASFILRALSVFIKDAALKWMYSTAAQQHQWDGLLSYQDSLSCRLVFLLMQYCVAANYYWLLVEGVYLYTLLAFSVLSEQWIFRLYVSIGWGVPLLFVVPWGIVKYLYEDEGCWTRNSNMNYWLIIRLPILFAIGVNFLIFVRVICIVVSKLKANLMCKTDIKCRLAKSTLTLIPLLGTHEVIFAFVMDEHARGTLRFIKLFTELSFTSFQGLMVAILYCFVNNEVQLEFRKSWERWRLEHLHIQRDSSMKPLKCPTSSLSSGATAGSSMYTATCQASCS

[7] = biological target: human glucagon receptor (human) (UniProt P47871); assay: cell-based or functional assay; remark: listed apart in the source
human glucagon receptor [8] = biological target: T1, human glucagon receptor; assay: cell-based or functional assay; remark: listed apart in the source
human glucagon receptor [9] = biological target: T1, human glucagon receptor; assay: cell-based or functional assay; remark: listed apart in the source
human glucagon receptor [10] = biological target: T1, human glucagon receptor; assay: cell-based or functional assay; remark: listed apart in the source
human glucagon receptor [11] = biological target: T1, human glucagon receptor; assay: cell-based or functional assay; remark: listed apart in the source
human glucagon receptor [12] = biological target: T1, human glucagon receptor; assay: cell-based or functional assay; remark: listed apart in the source
human GLP-1 receptor [13] = biological target: T2, human GLP-1 receptor (human, UniProt P43220 24-463); assay: cell-based or functional assay
human GLP-1 receptor [14] = biological target: T2, human GLP-1 receptor; assay: cell-based or functional assay; remark: listed apart in the source

With “[PLA6, E9, E16K20(Lactam)]G(6-39) (peptide)” the Glucagon antagonism IC50 (inhibit 0.2-0.8 nM glucagon) [1] was 20.5 nM.

With Ac-[PhLac]TSEYSKYLDSRRAQDFVQWLMNT-NH2 [[Ac-PLA^6, E^9]Glucagon(aa6-29)-NH2] the “IC50 (cAMP, inhibit 0.8 mM Glucagon)” value (human glucagon receptor [2]) was 38.1 nM.

B1: [desHis^1, desPhe^6, hCys^9(SO3-), Phe^25, Leu^27] Glucagon-NH2 (peptide)
peptide: SQGTTS[Abu(4-SO3H)]YSKYLDSRRAQDFVQFLLNT-NH2
modifications: N-terminus assumed
SMILES: CC(C)C[C@H](NC(=O)[C@H](Cc1ccc(O)cc1)NC(=O)[C@H](CCCCN)NC(=O)[C@H](CO)NC(=O)[C@H](Cc1ccc(O)cc1)NC(=O)[C@H](CCS(=O)(=O)O)NC(=O)[C@H](CO)NC(=O)[C@@H](NC(=O)[C@@H](NC(=O)CNC(=O)[C@H](CCC(N)=O)NC(=O)[C@@H](N)CO)[C@@H](C)O)[C@@H](C)O)C(=O)N[C@@H](CC(=O)O)C(=O)N[C@@H](CO)C(=O)N[C@@H](CCCNC(=N)N)C(=O)N[C@@H](CCCNC(=N)N)C(=O)N[C@@H](C)C(=O)N[C@@H](CCC(N)=O)C(=O)N[C@@H](CC(=O)O)C(=O)N[C@@H](Cc1ccccc1)C(=O)N[C@H](C(=O)N[C@@H](CCC(N)=O)C(=O)N[C@@H](Cc1ccccc1)C(=O)N[C@@H](CC(C)C)C(=O)N[C@@H](CC(C)C)C(=O)N[C@@H](CC(N)=O)C(=O)N[C@H](C(N)=O)[C@@H](C)O)C(C)C
notes: His1 and Phe6 deleted; also called Cmpd; 5B
With B1 the “cAMP Induction EC50” value (human glucagon receptor [3]) was 3210 nM, the “cAMP Inhibition IC50” value (human glucagon receptor [3]) was 9.22 µM and the IC50 (human glucagon receptor [4]) was 53.3 nM.

In the case of SQGTFTS[NSG‑1]YSKYLDSRRAQDFVQWLMNT-NH2 (reading uncertain, also called peptide no) [[(NSG-1)^9] Glucagon(aa2-29)-NH2], the IC50 (human glucagon receptor [5]) is reported as 983 nM.

B2: [(CSA-2)^9] Glucagon(aa2-29)-NH2 (peptide)
peptide: SQGTFTS[CSA‑2]YSKYLDSRRAQDFVQWLMNT-NH2
modifications: N-terminus assumed
SMILES: CSCC[C@H](NC(=O)[C@H](CC(C)C)NC(=O)[C@H](Cc1c[nH]c2ccccc12)NC(=O)[C@H](CCC(N)=O)NC(=O)[C@@H](NC(=O)[C@H](Cc1ccccc1)NC(=O)[C@H](CC(=O)O)NC(=O)[C@H](CCC(N)=O)NC(=O)[C@H](C)NC(=O)[C@H](CCCNC(=N)N)NC(=O)[C@H](CCCNC(=N)N)NC(=O)[C@H](CO)NC(=O)[C@H](CC(=O)O)NC(=O)[C@H](CC(C)C)NC(=O)[C@H](Cc1ccc(O)cc1)NC(=O)[C@H](CCCCN)NC(=O)[C@H](CO)NC(=O)[C@H](Cc1ccc(O)cc1)NC(=O)[C@H](CSCCC(=O)O)NC(=O)[C@H](CO)NC(=O)[C@@H](NC(=O)[C@H](Cc1ccccc1)NC(=O)[C@@H](NC(=O)CNC(=O)[C@H](CCC(N)=O)NC(=O)[C@@H](N)CO)[C@@H](C)O)[C@@H](C)O)C(C)C)C(=O)N[C@@H](CC(N)=O)C(=O)N[C@H](C(N)=O)[C@@H](C)O
notes: also called peptide no
For B2, the IC50 (human glucagon receptor [5]) was 13.3 nM.

FTSEYSKYLDERRAQDFVQWLMNTGPSSGAPPPS (PLA at position 6; C-terminal amide) [[PLA6, E9, E16]G(6-39)] showed a GLP-1 agonism EC50 [6] of 1760 nM and a Glucagon antagonism IC50 (inhibit 0.2-0.8 nM glucagon) [7] of 58.1 nM.

For SQGTFTSXYSKYLDSRRAQDFVQWLMNT (homoglutamic acid (hGlu) at position 9; C-terminal amide, also called peptide no) [[hGlu^9] Glucagon(aa2-29)-NH2], the IC50 (human glucagon receptor [5]) was 8.1 nM.

B3: [desHis^1, hCys^9(SO3-), Phe^25, Leu^27] Glucagon-NH2 (peptide)
peptide: SQGTFTS[Abu(4-SO3H)]YSKYLDSRRAQDFVQFLLNT-NH2
modifications: N-terminus assumed
SMILES: CC(C)C[C@H](NC(=O)[C@H](Cc1ccc(O)cc1)NC(=O)[C@H](CCCCN)NC(=O)[C@H](CO)NC(=O)[C@H](Cc1ccc(O)cc1)NC(=O)[C@H](CCS(=O)(=O)O)NC(=O)[C@H](CO)NC(=O)[C@@H](NC(=O)[C@H](Cc1ccccc1)NC(=O)[C@@H](NC(=O)CNC(=O)[C@H](CCC(N)=O)NC(=O)[C@@H](N)CO)[C@@H](C)O)[C@@H](C)O)C(=O)N[C@@H](CC(=O)O)C(=O)N[C@@H](CO)C(=O)N[C@@H](CCCNC(=N)N)C(=O)N[C@@H](CCCNC(=N)N)C(=O)N[C@@H](C)C(=O)N[C@@H](CCC(N)=O)C(=O)N[C@@H](CC(=O)O)C(=O)N[C@@H](Cc1ccccc1)C(=O)N[C@H](C(=O)N[C@@H](CCC(N)=O)C(=O)N[C@@H](Cc1ccccc1)C(=O)N[C@@H](CC(C)C)C(=O)N[C@@H](CC(C)C)C(=O)N[C@@H](CC(N)=O)C(=O)N[C@H](C(N)=O)[C@@H](C)O)C(C)C
notes: also called Cmpd; 4B
B3 was tested, and the “cAMP Induction EC50” value (human glucagon receptor [3]) was 430 nM and the IC50 (human glucagon receptor [4]) was 13.9 nM.

B4: [PLA^5, E^9]Glucagon(aa5-29)-NH2 (peptide)
peptide: [PhLac]FTSEYSKYLDSRRAQDFVQWLMNT-NH2
modifications: N-terminus assumed
SMILES: CSCC[C@H](NC(=O)[C@H](CC(C)C)NC(=O)[C@H](Cc1c[nH]c2ccccc12)NC(=O)[C@H](CCC(N)=O)NC(=O)[C@@H](NC(=O)[C@H](Cc1ccccc1)NC(=O)[C@H](CC(=O)O)NC(=O)[C@H](CCC(N)=O)NC(=O)[C@H](C)NC(=O)[C@H](CCCNC(=N)N)NC(=O)[C@H](CCCNC(=N)N)NC(=O)[C@H](CO)NC(=O)[C@H](CC(=O)O)NC(=O)[C@H](CC(C)C)NC(=O)[C@H](Cc1ccc(O)cc1)NC(=O)[C@H](CCCCN)NC(=O)[C@H](CO)NC(=O)[C@H](Cc1ccc(O)cc1)NC(=O)[C@H](CCC(=O)O)NC(=O)[C@H](CO)NC(=O)[C@@H](NC(=O)[C@H](Cc1ccccc1)NC(=O)[C@@H](O)Cc1ccccc1)[C@@H](C)O)C(C)C)C(=O)N[C@@H](CC(N)=O)C(=O)N[C@H](C(N)=O)[C@@H](C)O
With B4 the “IC50 (cAMP, inhibit 0.8 mM Glucagon)” value (human glucagon receptor [2]) was 328 nM.

With AEGTFTSEYSKYLDERRAKDFVQWLMDT-NH2 (lactam 15-19) [[A2E3, E9, E16K20(Lactam), D28]G(2-29)] the “Glucagon IC50” value (human glucagon receptor [8]) was 63 nM, the “Glucagon antagonism IC50 (inhibit 0.2-0.8 nM glucagon)” value (human glucagon receptor [9]) was 63.2 nM and the “Glucagon antagonism IC50 (inhibit 0.8 nM glucagon)” value (human glucagon receptor [10]) was 63.2 nM. For the same molecule, the “Glucagon antagonism IC50 (inhibit 0.8 nM glucagon)” value (human glucagon receptor [11]) was 63.2 nM and the “Glucagon antagonism IC50 (inhibit 0.8 nM glucagon)” value (human glucagon receptor [12]) was 151 nM.

B5: [(CSA-1]^9] Glucagon(aa2-29)-NH2 (peptide)
peptide: SQGTFTS[CSA‑1]YSKYLDSRRAQDFVQWLMNT-NH2
modifications: N-terminus assumed
SMILES: CSCC[C@H](NC(=O)[C@H](CC(C)C)NC(=O)[C@H](Cc1c[nH]c2ccccc12)NC(=O)[C@H](CCC(N)=O)NC(=O)[C@@H](NC(=O)[C@H](Cc1ccccc1)NC(=O)[C@H](CC(=O)O)NC(=O)[C@H](CCC(N)=O)NC(=O)[C@H](C)NC(=O)[C@H](CCCNC(=N)N)NC(=O)[C@H](CCCNC(=N)N)NC(=O)[C@H](CO)NC(=O)[C@H](CC(=O)O)NC(=O)[C@H](CC(C)C)NC(=O)[C@H](Cc1ccc(O)cc1)NC(=O)[C@H](CCCCN)NC(=O)[C@H](CO)NC(=O)[C@H](Cc1ccc(O)cc1)NC(=O)[C@H](CSCC(=O)O)NC(=O)[C@H](CO)NC(=O)[C@@H](NC(=O)[C@H](Cc1ccccc1)NC(=O)[C@@H](NC(=O)CNC(=O)[C@H](CCC(N)=O)NC(=O)[C@@H](N)CO)[C@@H](C)O)[C@@H](C)O)C(C)C)C(=O)N[C@@H](CC(N)=O)C(=O)N[C@H](C(N)=O)[C@@H](C)O
notes: also called peptide no
B5 showed an IC50 (human glucagon receptor [5]) of 12.7 nM.

B6: [PLA^4, E^9]Glucagon(aa4-29)-NH2 (peptide)
peptide: [PhLac]TFTSEYSKYLDSRRAQDFVQWLMNT-NH2
modifications: N-terminus assumed
SMILES: CSCC[C@H](NC(=O)[C@H](CC(C)C)NC(=O)[C@H](Cc1c[nH]c2ccccc12)NC(=O)[C@H](CCC(N)=O)NC(=O)[C@@H](NC(=O)[C@H](Cc1ccccc1)NC(=O)[C@H](CC(=O)O)NC(=O)[C@H](CCC(N)=O)NC(=O)[C@H](C)NC(=O)[C@H](CCCNC(=N)N)NC(=O)[C@H](CCCNC(=N)N)NC(=O)[C@H](CO)NC(=O)[C@H](CC(=O)O)NC(=O)[C@H](CC(C)C)NC(=O)[C@H](Cc1ccc(O)cc1)NC(=O)[C@H](CCCCN)NC(=O)[C@H](CO)NC(=O)[C@H](Cc1ccc(O)cc1)NC(=O)[C@H](CCC(=O)O)NC(=O)[C@H](CO)NC(=O)[C@@H](NC(=O)[C@H](Cc1ccccc1)NC(=O)[C@@H](NC(=O)[C@@H](O)Cc1ccccc1)[C@@H](C)O)[C@@H](C)O)C(C)C)C(=O)N[C@@H](CC(N)=O)C(=O)N[C@H](C(N)=O)[C@@H](C)O
B6 was tested, and the “IC50 (cAMP, inhibit 0.8 mM Glucagon)” value (human glucagon receptor [2]) was 84.4 nM.

B7: K40-chol G(6-40) (peptide)
peptide: FTSDYSKYLDERRAKDFVQWLMDTGPSSGAPPPSK
modifications: PLA at position 6; lactam bridge Glu16-Lys20; Lys40(COCH2CH2S-Chol) cholesterol conjugate; C-terminal amide
Molecule B7 has a GLP-1 agonism EC50 [6] of 47 nM and a Glucagon antagonism IC50 (inhibit 0.4 nM glucagon) [7] of 312 nM.

HSQGTFTSDYARYLDARRAREFIKWLVRGRG [ANK2 (Bayer peptide)] was tested, and the “GLP-1 EC50” value (human GLP-1 receptor [13]) was 0.28 nM and the “GLP-1 agonism EC50” value (human GLP-1 receptor [14]) was 0.28 nM.

SQGTFTS[NSG‑2]YSKYLDSRRAQDFVQWLMNT-NH2 (reading uncertain, also called peptide no) [[(NSG-2)^9] Glucagon(aa2-29)-NH2] was tested, and the IC50 (human glucagon receptor [5]) was 2350 nM.
